The text below walks through data of patent publication US20010023062A1.

Assay [1] concerns the target IL-5Rα/IFNaR1 + βc/IFNaR2-2 (human) (UniProt Q01344). In words: cell-based or functional assay.
In assay [2] the target is IL-5Rα/IFNaR2-2 + βc/IFNaR1 (human) (UniProt Q01344). Briefly: cell-based or functional assay.

On to “IL-5 (produced in Sf9 cells using published methodologies) (from UniProt P05113 20-134) (ligand)”, for which the colonies in HAT + IL-5 (6-16 gpt selection, transfected 2fTGH cells, 1 ng/ml IL-5) in assay [1] turned out to be 3 colonies. Moreover, in assay [2], the SEAP activity (6-16SEAP reporter, transient transfection of 2fTGH cells), 1 ng/ml IL-5, against untreated cells amounted to 5 fold; the SEAP activity (6-16SEAP reporter, transient transfection of 2fTGH cells), 2 ng/ml IL-5, against untreated cells was determined as 6 fold; the colonies in HAT + IL-5 (6-16 gpt selection, transfected 2fTGH cells, 1 ng/ml IL-5) was 13 colonies.
As for “hIL-5syn (human IL-5 expressed by the cells from pEFBOS-hIL-5syn or pMET7-hIL-5syn) (from UniProt P05113 20-134) (ligand)”, the colonies surviving in HAT medium without added IL-5 (clone C cells transfected with pEFBOS-hIL-5syn) in assay [2] worked out at 6 colonies.
